Experimental findings from article PMC10720262 (Cell Reports, 2023) are described below.

This test deals with recombinant full-length PfCSP (Plasmodium falciparum circumsporozoite protein, strain NF54) (Plasmodium falciparum NF54, UniProt P19597).

Positions count from the first letter of the chain named.

Sequence of recombinant full-length PfCSP (Plasmodium falciparum circumsporozoite protein, strain NF54) (P19597 20-375): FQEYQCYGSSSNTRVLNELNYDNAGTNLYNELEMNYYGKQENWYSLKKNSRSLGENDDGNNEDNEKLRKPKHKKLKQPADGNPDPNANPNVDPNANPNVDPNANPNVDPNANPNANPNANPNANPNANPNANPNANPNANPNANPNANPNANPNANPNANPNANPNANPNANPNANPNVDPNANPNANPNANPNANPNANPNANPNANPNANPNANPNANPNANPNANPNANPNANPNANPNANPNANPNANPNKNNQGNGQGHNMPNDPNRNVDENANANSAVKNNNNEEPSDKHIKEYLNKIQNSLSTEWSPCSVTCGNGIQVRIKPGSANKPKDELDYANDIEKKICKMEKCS

B1: CL-512206 (antibody, V domains shown)
VH: QVQLVESGGGVVQPGRSLRLSCAASGFTFSHYGMHWVRQAPGKGLEWVAVIWYDGNNKFYADSVKGRFTISRDNSNNTLYLQMNSLRAEDTAVYHCVRERTGATSRGFDFWGQGTLVTVSS
VL: QSVLTQPPSVSAAPGQKVTISCSGSDSNIEKYYVSWYQQLPGSAPKLLIYDNNKRPSGIPDRFSGSKSGTSATLGITGLQTGDEAVYYCGTWDSSLSTGVFGGGTKLTVL
With B1, the binding result is “binds”.

B2: CL-511905 (antibody, V domains shown)
VH: QVQLVESGGGVVQPGRSLRLSCAASGFTFSGSGMHWVRQAPGRGLEWVAIIWYDGSHKYYVDSVQGRFIISRDNSKNTLYLEMNSLRVEDTAVYYCVRAYPSGSSNDKYGMDVWGQGTTVTVSS
VL: not shown
Consider B2, for which the binding result was “binds”.

B3: CL-510514 (antibody, V domains shown)
VH: QVQLVESGGGVVQPGRSLRLSCTTSGFTFSNFGMHWVRQAPGKGLEWVALIWYDGSNKYYADSVKGRFTISRDNSKNTLYLQMNGLRAEDTAVYYCARDGGYYYGSGGAFDIWGQGTMVTVSS
VL: not shown
Take B3: the binding result is given as “binds”.

B4: CL-510499 (antibody, V domains shown)
VH: QVQLVESGGGLVQPGRSLTLSCAASGFTFSNYGMHWVRQTPGKGLEWVALIRYDGSYKFYADSVKGRFTISRDNSKNTLYLQMNSLRAEDTAIYFCARDGDYSNSAGDFDYWGQGTLVTVSS
VL: EIVLTQSPGTLSLSPGERATLSCRASQSVSSTNLAWYQQKPGQAPRLLIYGVSSRATGIPDRFSGSGSGTDFTLTINRLEPEDFAVYYCQQHGRSFTFGPGTKVEIK
Take B4: the binding result is recorded as “binds”.

B5: CL-510469 (antibody, V domains shown)
VH: QVQLVESGGGVVQPGRSLRLSCAASGFTFSSYGMHWVRQAPGKGLEWVAVIWYDGSNQFYTDSVKGRFTISRDNSKNTLYLHMNSLRVEDTAIYYCARDGDYSSSAGDFDYWGQGTLVTVSS
VL: not shown
Take B5: the binding result was “binds”.

B6: CL-511776 (antibody, V domains shown)
VH: QVQLVESGGGVVQPGRSLTLSCAASGFTFSNFGMHWVRQAPGKGLEWMAVIWYDGNNEFYADSVKGRFTISRDNSKNMLYLHMNSLRAEDTAIYYCAREGDYSASGSHWLFDPWGQGTQVTVSS
VL: DIQMTQSPSTLSASVGDSITITCRASQSINIWLAWYQQKPGKAPNLLIYKASSLESGVPSRFSGSGSGTEFTLTINSLQPDDFATYYCQQYNNYVTFGGGTKVEIK
Consider B6, for which the binding result is recorded as “binds”.

B7: CL-510596 (antibody, V domains shown)
VH: QVQLEESGGGVVQPGRSLRLSCTATGFTFSNYGMHWVRQAPGKGLEWVAVIWYDGSNKYYVDSVKGRFTISRDNSKNTLYLQMNSLRAEDTAVYYCARDGGYYGSGSYWWFDSWGQGTLVTVSS
VL: not shown
In the case of B7, the binding result is “binds”.

B8: CL-510453 (antibody, V domains shown)
VH: QVQLVESGGGVVQPGRSLRLSCAASGFTFSSYGMHWVRQAPDKGLEWVAIIWYDGSKKYYADSVKGRFTVSRDNSKNTLYLQMNSLRAEDTAVFYCARSFDYESGGFYSFDYWGQGTLVSVSS
VL: DIQMTQSPSTLSASVGDRVTITCRASQSISSWLAWYQQKPGKAPKLLIYRASSLASGVPSRFSGSGSGTEFTLTISSLQPDDFATYYCQQYNSYWTFGQGTKVEFK
For B8, the binding result is “binds”.

B9: CL-510700 (antibody, V domains shown)
VH: QVQLVESGGGVVQPGRSLRLSCAASGFTFSDFGMHWVRQTPGKGLEWVAIIWYDGSNKFYADSVKGRFTISRDNSKNTLFLQMNSLRAEDTAVYYCARSGVYYGSGSHFDYWGQGTLVTVSS
VL: B8 VL with Q38L, R50K, S53N, A55E, S56T, S60L, W95L, F105I
Turning to B9, the binding result is “binds”.

B10: CL-510640 (antibody, V domains shown)
VH: QVQLVESGGGVVQPGRSLRLSCAASGFTFSNYGMHWVRQAPVKGLEWVAIIWYDGSNKFYADSVRGRFIISRDNSKNTLYLQMNSLRAEDTAVYFCARAREGQNSDYYGSETSYTFDSWGLGTLVTVSS
VL: B8 VL with L46F, R50K, A55E, N92K, F105I
In the case of B10, the binding result is reported as “binds”.

B11: CL-511026 (antibody, V domains shown)
VH: QVQLVESGGGVVQPGRSLRLSCAASGFTFSNFGMHWVRQAPDRGLEWVSIIWYDGSNKFYADSVKGRFTISRDNSKNTLFLQMDSLRAEDTAVYYCAKAEMRTSDYYNYGMDVWGQGTTVTVSS
VL: B8 VL with R50K, A55E, G68A, S76R, N92Y, F105I, K106N
With B11, the binding result was “binds”.

B12: CL-510487 (antibody, V domains shown)
VH: B7 VH with K43R, A49G, Y59F
VL: B8 VL with R50K, A55E, S56R, S93R, W95C, T96S, V103L, F105I
As to B12, the binding result is “binds”.

B13: CL-511296 (antibody, V domains shown)
VH: QVQLVASGGGVVQPGRSQRLSCAASGFTFSNYGMHWVRQSPGRGLEWVAIIWYDGSNKFYADSVKGRFTISRDNSRNTLFLQMNSLRAEDTAIYYCAKSEERTSDNYFKYGMDVWGQGTTVIVST
VL: B8 VL with R50K, S53N, A55E, T74S, S77N, Y87F, N92T, F105I
On to B13, for which the binding result is recorded as “binds”.

B14: CL-511862 (antibody, V domains shown)
VH: QVQLVESGGGVVQPGKSLRLSCAASGFSFSSSGMHWVRQAPDKGLEWVAIIWYDGSHKFYADSVKGRFTISRDNSDNTLFLQMDSLRAEDTAVYYCVRAYPTSYNGNYDKYGMDVWGQGTTVTVSS
VL: B8 VL with T22A, S31T, R50K, S53T, A55E, Y91F, N92T, S93F, F105I
For the molecule B14, the binding result is recorded as “binds”.

B15: CL-512011 (antibody, V domains shown)
VH: QVQLVESGGGVVQPGRSLRLSCVTSGFTFSSFGMHWVRQAPGKGLEWVALIWYDGSHKFYADSLTGRFTISRDNSKNTLYLQMNSLRVEDTAVYYCARAHAVTTANDKYGTDVWGQGTTVNVSP
VL: B8 VL with Q38H, K42N, R50K, S53N, A55E, Y87F, F105V
As for B15, the binding result is “binds”.

B16: CL-511771 (antibody, V domains shown)
VH: QVQLVESGGGVVQPGRSLRLSCAASGFTFSNSGMHWVRQAPGKGLEWVAIIWYDGSNKYYAESMKGRFTISRDNSKNTLYLQMNSLRAEDTAVYYCARDGTTNAFDLWGQGTMVTVSP
VL: not shown
Turning to B16, the binding result is reported as “binds”.

B17: CL-510458 (antibody, V domains shown)
VH: QVQLVESGGGVVQPGRSLRLSCAASGFTFNNYGMHWVRQAPGKGLEWVAVIWYDGSNKFHADSVKGRFTISRDNSKNTLYLQMNSLRAEDTALYYCARVYYYDSGSYLDYWGQGTLVTVSS
VL: DIQMTQSPSSVSASVGDRVTITCRASQGISRWLAWYQQKPGKAPKLLIYAASSLQSGVPSRFSGSGSGTDFTLTISSLQPEDFATYCCQQANNFPWTFGQGTKVEIK
Turning to B17, the binding result is “binds”.

B18: CL-510632 (antibody, V domains shown)
VH: B17 VH with N30S, H60Y, M83T, L93V, S106N, T118A
VL: B17 VL with S30N, R31N, W32C, S77N, N93S
For B18, the binding result was “binds”.

B19: CL-510427 (antibody, V domains shown)
VH: QVQLVESGGGVVQPGRSLRLSCAASGFTFSNYGMHWVRQAPGKGLEWVAVIWYDGSKEDYADSVKGRLTISRDNSKNTLYLQMNSLRAEDTAVYYCARDGDSRGWYAFDYWGQGTLVTVSS
VL: not shown
For the molecule B19, the binding result is “binds”.

B20: CL-510484 (antibody, V domains shown)
VH: QVQLVESGGGVVQPGRSLRLSCAASGFTFSNYGMNWVRQAPGKGLEWMAVIWYDGSNKYYGDSVKGRFTISRDNSKNTLYLQMISLRAEDTAVYFCAKSGEFYGSGSHFDYWGQGTLVTVSS
VL: not shown
B20: the binding result is listed as “binds”.

B21: CL-512191 (antibody, V domains shown)
VH: QVQLVESGGGVVQPGRSLRLSCAASGFTFSNYAMHWVRQAPGKGLEWVAVIWYDGSNKYYADSVKGRFTISRDDSKNTLYLQMNSLRAEDTAVYYCARDKGYRYGFNWFDPWGQGTLVTVSS
VL: QSVLTQPPSVSGAPGQRVTISCTGSSSNIGAGYDVHWYQKLPGTAPKLLIFSNSNRPSGVPDRFSGSKSGTSASLAITGLQAEDEADYYCQSYDSSLSGSRVFGGGTKLTVL
As to B21, the binding result is on record as “binds”.

B22: CL-510433 (antibody, V domains shown)
VH: QVQLVESGGGVVQPGRSLRLSCVASGFTFSSYGMHWVRQAPGKGLEWVAVIWYDGSNKYYADSVKGRFTVSRDNSKNTLYLQMNSLRAEDTAVYYCARVYYYGSGSYSPYYYALDVWGHGTTVTVSS
VL: EIVMTQSPATLSVSPGERATLSCRASQSISSNLAWYQQKPGQAPRLLIYGASIRATGIPARFSGSGSGTEFTLSISILQSEDFAIYYCQQYNNWWTFGQGTKVEIK
B22: the binding result is recorded as “binds”.

B23: CL-511073 (antibody, V domains shown)
VH: QVQLVESGGGVVQPGRSLRLSCAASGFSFSSHGMHWVRQAPGKGLEWVSIIWYDGSNKFYADSVKGRFTISRDNSKNTLYLQMNSLRAEDTAVYYCARDGYDVLTGHYNWFDPWGQGTLVTVSS
VL: B22 VL with I29V, N32K, I53T, E70D, S74T, I77S, I85V, Q99H
With B23, the binding result is on record as “binds”.

B24: CL-512023 (antibody, V domains shown)
VH: QVQLMESGGGVVQPGRSLRLSCEASGFTFSNSGMHWVRQAPGKGLEWVAIIWYDGSNRYYVDSVKGRFTISRDNSKNTLYLQMNSLRAEDTAVYYCARDGGNRYGYGWFDSWGQGTLVTVSS
VL: QSVLTQPPSVSGAPGQRVTISCTGSSSNIGAGYDVHWYQQLPGTAPKLLIYGNTNRPSGVPDRFSGSKSGTSASLAITGLQAEDEADYYCQSYDSSLGGSRRVFGGGTKLTVL
For the molecule B24, the binding result is “binds”.
